Assay results from patent publication US20020141999A1.

Assays:
[1] = target: human CD7, full length, on cells (human) (UniProt P09564); test: flow cytometry, control Fc on Jurkat cells (express CD7), non-blocked
[2] = target: human CD7, full length, on cells (human) (UniProt P09564); test: flow cytometry, control IgG on Jurkat cells (express CD7), non-blocked
[3] = target: human CD7, full length, on cells (human) (UniProt P09564); test: flow cytometry, control IgG staining of Jurkat cells (express CD7), non-blocked
[4] = target: human CD7, full length, on cells (human) (UniProt P09564); test: flow cytometry, antibody staining of Jurkat cells (express CD7), non-blocked
[5] = target: human CD7, full length, on cells (human) (UniProt P09564); test: flow cytometry, antibody staining of Jurkat cells preincubated with HuK12-Fc (competitor)

Sequence of human CD7, full length, on cells (human) (P09564 26-240 limits assumed): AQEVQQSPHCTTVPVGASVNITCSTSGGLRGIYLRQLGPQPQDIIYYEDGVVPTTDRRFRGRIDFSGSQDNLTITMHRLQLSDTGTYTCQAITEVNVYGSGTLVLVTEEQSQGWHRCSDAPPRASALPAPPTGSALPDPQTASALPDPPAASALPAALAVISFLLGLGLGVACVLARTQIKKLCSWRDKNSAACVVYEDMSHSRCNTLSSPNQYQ

Row | Substance | % Positive Cells [1] [%] | MFI [1] | % Positive Cells [2] [%] | MFI [2] | % Positive Cells [3] [%] | MFI [3] | % Positive Cells [4] [%] | MFI [4] | % Positive Cells [5] [%] | MFI [5]
1 | Control Fc (Fc fusion) | 3.4 | 18 |  |  |  |  |  |  |  | 
2 | IgG Control (antibody) |  |  | 3.6 | 17 | 3 | 18 |  |  |  | 
3 | anti-human CD7 monoclonal antibody Clone 4H9 (Pharmingen) |  |  |  |  |  |  | 88 | 38 | 4 | 19
4 | anti-human CD7 monoclonal antibody Clone 8118.1 (Immunotech) |  |  |  |  |  |  | 78 | 27 | 8 | 24
5 | anti-human CD7 monoclonal antibody Clone CLB-3A1 (Research Diagnostics, Inc.) |  |  |  |  |  |  | 80 | 30 | 63 | 24
6 | anti-human CD7 monoclonal antibody Clone M-T701 (Becton Dickinson) |  |  |  |  |  |  | 78 | 27 | 12 | 19
7 | anti-human CD7 monoclonal antibody Clone RFT-2a (Research Diagnostics, Inc.) |  |  |  |  |  |  | 71 | 23 | 9 | 18
8 | anti-human CD7 monoclonal antibody Clone WM31 (Research Diagnostics, Inc.) |  |  |  |  |  |  | 62 | 22 | 11 | 18
